Experimental data as given in paper doi:10.1101/2020.11.05.369280 (bioRxiv, 2020).

Target: EIIA^Glc (UniProt P69783 2-169)
Assay: SPR + ELISA

Chain of EIIA^Glc (P69783 2-169): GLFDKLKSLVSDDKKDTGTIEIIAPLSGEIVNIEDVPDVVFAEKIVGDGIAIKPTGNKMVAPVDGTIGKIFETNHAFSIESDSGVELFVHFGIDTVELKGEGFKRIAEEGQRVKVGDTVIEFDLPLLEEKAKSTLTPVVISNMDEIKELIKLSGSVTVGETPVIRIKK

B1: EIIB^Glc (domain or fragment)
chain: EDATEDAKATGTSEMAPALVAAFGGKENITNLDACITRLRVSVADVSKVDQAGLKKLGAAGVVVAGSGVQAIFGTKSDNLKTEMDEYIRN
Kd: > 10 µM
